B1: human DAXX four-helix bundle domain (4HB, residues 50–144) [human] / human ATRX DAXX-binding motif (DBM) peptide, wild type [human] (parent complex)
chain 1: SSSSGGKKCYKLENEKLFEEFLELCKMQTADHPEVVPFLYNRQQRAHSLFLASAEFCNILSRVLSRARSRPAKLYVYINELCTVLKAHSAKKKLN
chain 2: NDPENRIAKKMLLEEIKANLSSDE
B2: human ATRX DAXX-binding motif (DBM) peptide, wild type [human] / human DAXX four-helix bundle domain (4HB, residues 50–144) [human] (parent complex)
chain 1: NDPENRIAKKMLLEEIKANLSSDE
chain 2: B1 chain 1

Variants of: B1
Assay: ITC

Row | Variant | Kd
1 | chain 1 F38A | 7.5 µM

Variants of: B2
Assay: ITC

Row | Variant | Kd
2 | chain 1 I16A | 12.9 µM
